Experimental data published in the supplement of paper PMC10724198.
± gives the standard deviation of the averaged measurements.

Assays:
Saccharomyces cerevisiae [1] = assay: protein stability index of tFT-peptide fusion (C-terminal peptide) (PSI (0-1 scale)); higher = more stable (slower turnover); details: genetic background: wild type; temperature: 30 C
Saccharomyces cerevisiae [2] = assay: as above
Procedure: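 MPS profiling in S. cerevisiae of the tFT-X12 degron library: putative degron peptides plus stable controls, 12 aa, fused to the C-terminus of a sfGFP-mCherry timer. Cells are FACS-sorted into 8 mCherry/sfGFP bins and deep-sequenced. PSI runs from 0 (unstable) to 1 (stable). Backgrounds are wild type, das1Δ and doa10Δ at 30 °C, and wild type, das1Δ, cdc34-1 and cdc53-1 at 37 °C; 2-3 technical replicates each.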

[3] = genetic background: cdc34-1, temperature: 37 C
[4] = genetic background: cdc53-1, temperature: 37 C
[5] = genetic background: das1 deletion, temperature: 30 C
[6] = genetic background: das1 deletion, temperature: 37 C
[7] = genetic background: doa10 deletion, temperature: 30 C
[8] = genetic background: wild type, temperature: 30 C
[9] = genetic background: wild type, temperature: 37 C
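Further: PSI is a weighted mean of sequencing reads over stability bins, variants kept only with over 10 reads, mCherry proximal and sfGFP distal, peptide attached via GGGS linker.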

Sequence	protein stability index (Saccharomyces cerevisiae [1])	protein stability index (Saccharomyces cerevisiae [2]; [3])	protein stability index (Saccharomyces cerevisiae [2]; [4])	protein stability index (Saccharomyces cerevisiae [2]; [5])	protein stability index (Saccharomyces cerevisiae [2]; [6])	protein stability index (Saccharomyces cerevisiae [2]; [7])	protein stability index (Saccharomyces cerevisiae [2]; [8])	protein stability index (Saccharomyces cerevisiae [2]; [9])
VLSFWAFLFLLF	0.335 ± 0.011	0.428 ± 0.012	0.412 ± 0.026	0.398 ± 0.023	0.488 ± 0.015	0.31 ± 0.013	0.282 ± 0.0089	0.3785 ± 0.0022
FLGPYTPGMYLA	0.359 ± 0.037	0.656 ± 0.031	0.7393 ± 0.0022	0.658 ± 0.015	0.7435 ± 0.0044	0.208 ± 0.011	0.258 ± 0.019	0.482 ± 0.0086
FFCRARHRLYVA	0.233 ± 0.023	0.537 ± 0.044	0.626 ± 0.059	0.626 ± 0.012	0.675 ± 0.0094	0.0986 ± 0.0092	0.105 ± 0.0095	0.152 ± 0.061
VGHVFLGVVWLV	0.163 ± 0.013	0.44 ± 0.043	0.573 ± 0.014	0.457 ± 0.031	0.6 ± 0.0034	0.0977 ± 0.0055	0.101 ± 0.013	0.0863 ± 0.011
SVGVVWVLSVEG	0.454 ± 0.0074	0.444 ± 0.042	0.517 ± 0.015	0.33 ± 0.031	0.5415 ± 0.0018	0.308 ± 0.0081	0.343 ± 0.018	0.503 ± 0.0036
GMGYISVVVWSH	0.208 ± 0.0092	0.0293 ± 0.0072	0.1 ± 0.029	0.141 ± 0.046	0.2283 ± 0.00048	0.104 ± 0.015	0.114 ± 0.017	0.155 ± 0.017
SCICTSCLVLVL	0.368 ± 0.049	0.5223 ± 0.0033	0.509 ± 0.024	0.327 ± 0.032	0.552 ± 0.002	0.298 ± 0.011	0.32 ± 0.029	0.5334 ± 0.0046
CLVLCLSIPSPL	0.55 ± 0.08	0.607 ± 0.027	0.6246 ± 0.00068	0.497 ± 0.03	0.6133 ± 0.0046	0.501 ± 0.018	0.5 ± 0.015	0.606 ± 0.012
VGVIGWGVLGVG	0.5 ± 0.01	0.475 ± 0.04	0.548 ± 0.0055	0.481 ± 0.011	0.541 ± 0.011	0.4866 ± 0.00011	0.481 ± 0.013	0.536 ± 0.0097
LMPYIIFLMSFQ	0.418 ± 0.014	0.458 ± 0.026	0.496 ± 0.017	0.351 ± 0.027	0.5408 ± 0.0045	0.335 ± 0.028	0.347 ± 0.0081	0.498 ± 0.042
PLFPPTDSPSPN	0.727 ± 0.03	0.7098 ± 0.0063	0.729 ± 0.051	0.668 ± 0.025	0.724 ± 0.018	0.685 ± 0.025	0.648 ± 0.015	0.709 ± 0.029
AVYEGLLIRCLI	0.337 ± 0.011	0.4982 ± 0.0037	0.5271 ± 0.0033	0.392 ± 0.033	0.5549 ± 0.0045	0.195 ± 0.013	0.251 ± 0.021	0.392 ± 0.0068
LCFVSTWVWSVG	0.474 ± 0.037	0.498 ± 0.055	0.5203 ± 0.0015	0.395 ± 0.032	0.58 ± 0.0085	0.368 ± 0.016	0.401 ± 0.01	0.569 ± 0.007
VAVFFGCCVKVG	0.156 ± 0.026	0.149 ± 0.027	0.18 ± 0.02	0.191 ± 0.035	0.3258 ± 0.0018	0.0877 ± 0.0089	0.109 ± 0.024	0.141 ± 0.019
LFILRPVVGVLN	0.495 ± 0.053	0.531 ± 0.034	0.53 ± 0.021	0.402 ± 0.035	0.555 ± 0.0077	0.368 ± 0.012	0.408 ± 0.016	0.528 ± 0.008
YTHRYFVRLFAV	0.3123 ± 0.0026	0.518 ± 0.047	0.708 ± 0.0076	0.504 ± 0.019	0.6558 ± 0.0057	0.206 ± 0.0073	0.2 ± 0.014	0.405 ± 0.0098
KIKVFHEMVLMC	0.18 ± 0.0043	0.37 ± 0.059	0.587 ± 0.0097	0.446 ± 0.031	0.628 ± 0.017	0.114 ± 0.0016	0.139 ± 0.013	0.135 ± 0.043
EIKTEIGKKKKN	0.503 ± 0.0079	0.632 ± 0.2	0.671 ± 0.022	0.723 ± 0.05	0.658 ± 0.045	0.541 ± 0.0061	0.61 ± 0.028	0.608 ± 0.067
PLLALTSWLFFV	0.254 ± 0.008	0.5467 ± 0.0033	0.6521 ± 0.0011	0.586 ± 0.012	0.689 ± 0.022	0.165 ± 0.0048	0.173 ± 0.0033	0.268 ± 0.0046
SPKFMCSLSCWW	0.732 ± 0.011	0.714 ± 0.026	0.77647 ± 0.00063	0.685 ± 0.071	0.7527 ± 0.006	0.6577 ± 0.0042	0.665 ± 0.014	0.744 ± 0.021

Sequence	protein stability index (Saccharomyces cerevisiae [1])	protein stability index (Saccharomyces cerevisiae [2]; [3])	protein stability index (Saccharomyces cerevisiae [2]; [4])	protein stability index (Saccharomyces cerevisiae [2]; [5])	protein stability index (Saccharomyces cerevisiae [2]; [6])	protein stability index (Saccharomyces cerevisiae [2]; [7])	protein stability index (Saccharomyces cerevisiae [2]; [8])	protein stability index (Saccharomyces cerevisiae [2]; [9])
CALCIGTYIRVV	0.451 ± 0.029	0.495 ± 0.01	0.503 ± 0.014	0.385 ± 0.029	0.552 ± 0.0098	0.367 ± 0.029	0.345 ± 0.048	0.501 ± 0.031
VFLNVLDNNRLC	0.464 ± 0.037	0.65 ± 0.078	0.734 ± 0.011	0.662 ± 0.025	0.74 ± 0.0031	0.323 ± 0.011	0.331 ± 0.046	0.622 ± 0.028
SILVLGRSVGVG	0.519 ± 0.07	0.436 ± 0.026	0.4817 ± 0.00055	0.44 ± 0.027	0.521 ± 0.023	0.451 ± 0.0099	0.442 ± 0.01	0.49 ± 0.018
DRRFLVMISVSL	0.398 ± 0.039	0.33 ± 0.01	0.357 ± 0.016	0.272 ± 0.045	0.458 ± 0.008	0.251 ± 0.0083	0.262 ± 0.028	0.414 ± 0.0086
CFGVVVLGLSLD	0.491 ± 0.024	0.442 ± 0.0052	0.503 ± 0.031	0.352 ± 0.039	0.564 ± 0.015	0.319 ± 0.0043	0.354 ± 0.027	0.531 ± 0.021
AVWVAVEVEAGR	0.436 ± 0.026	0.468 ± 0.045	0.498 ± 0.025	0.331 ± 0.026	0.5447 ± 0.0044	0.3 ± 0.009	0.333 ± 0.023	0.53 ± 0.018
DYIFVYAVMFMR	0.265 ± 0.045	0.14 ± 0.046	0.292 ± 0.046	0.152 ± 0.026	0.319 ± 0.02	0.116 ± 0.0035	0.118 ± 0.031	0.308 ± 0.02
SCPEFNIRVRNG	0.297 ± 0.11	0.641 ± 0.033	0.669 ± 0.047	0.661 ± 0.023	0.731 ± 0.012	0.138 ± 0.022	0.168 ± 0.028	0.409 ± 0.045
LRCIFVVVSFTP	0.291 ± 0.15	0.0799 ± 0.045	0.2 ± 0.025	0.172 ± 0.035	0.305 ± 0.014	0.129 ± 0.0095	0.153 ± 0.035	0.25 ± 0.0035
WFLWWCVCLFVF	0.307 ± 0.0073	0.312 ± 0.015	0.314 ± 0.03	0.304 ± 0.023	0.403 ± 0.018	0.2527 ± 0.00072	0.255 ± 0.012	0.299 ± 0.0032
ISLSCRSFFCLS	0.507 ± 0.027	0.61 ± 0.033	0.68 ± 0.011	0.574 ± 0.018	0.6691 ± 0.0065	0.446 ± 0.015	0.462 ± 0.019	0.5854 ± 0.0049
FSCEFKMSCLKS	0.507 ± 0.011	0.649 ± 0.04	0.701 ± 0.0097	0.601 ± 0.023	0.679 ± 0.016	0.474 ± 0.015	0.488 ± 0.029	0.605 ± 0.017
WFWTFIWLIMDD	0.439 ± 0.0064	0.435 ± 0.049	0.501 ± 0.044	0.388 ± 0.016	0.521 ± 0.025	0.399 ± 0.027	0.41 ± 0.039	0.504 ± 0.043
VLDLLRHGFLWQ	0.761 ± 0.071	0.686 ± 0.051	0.736 ± 0.0032	0.706 ± 0.024	0.727 ± 0.011	0.689 ± 0.017	0.6984 ± 0.0056	0.7119 ± 0.0068
DKKNCIIIYYKQ	0.147 ± 0.062	0.479 ± 0.053	0.706 ± 0.074	0.653 ± 0.021	0.6973 ± 0.0046	0.0802 ± 0.03	0.0804 ± 0.024	0.106 ± 0.011
HEVHATVPNQIM	0.697 ± 0.011	0.688 ± 0.026	0.7487 ± 0.0024	0.638 ± 0.01	0.736 ± 0.0095	0.649 ± 0.018	0.653 ± 0.02	0.7114 ± 0.0045
VNTRIVVRMRHL	0.433 ± 0.014	0.638 ± 0.056	0.701 ± 0.015	0.64 ± 0.014	0.704 ± 0.02	0.339 ± 0.0049	0.348 ± 0.013	0.529 ± 0.0082
NARNPKKNRDQI	0.524 ± 0.093	0.697 ± 0.037	0.7226 ± 0.0072	0.627 ± 0.026	0.705 ± 0.032	0.633 ± 0.02	0.666 ± 0.058	0.70322 ± 0.00025
GRHRRYLLLPVH	0.419 ± 0.015	0.487 ± 0.029	0.5232 ± 0.0027	0.369 ± 0.028	0.541 ± 0.0057	0.308 ± 0.0055	0.35 ± 0.019	0.485 ± 0.013
